Biological target: Env 10.17 gp120 (HIV-1)
Assay: direct-binding ELISA (OD450) on CH848.d0949.10.17 gp120 [panel A]

B1: DH270.IA4 (antibody, V domains shown)
VH: QVQLVQSGAEVKKPGASVKVSCKASGYTFTDYYIHWVRQAPGQGLEWMGWINPNTGRTNYAQKFQGRVTMTRDTSISTAYMELSRLRSDDTAVYYCARGGWIGLYYDSSGYPNFDYWGQGTLVTVSS
VL: QSALTQPASVSGSPGQSITISCTGTSYDVGSYNLVSWYQQHPGKAPKLMIYEVSKRPSGVSNRFSGSKSGNTASLTISGLQAEDEADYYCCSYAGSSTVIFGGGTKLTVL
notes: Inferred intermediate, recombinant IgG; also called DH270.I4
- EC50 (read off the curve): ~2 µg/mL

— patent US20240150445A1 (DUKE UNIVERSITY, published 2024)
